Assay results as given in PMC3572029.

Target: HSF1β-EGFP (heat shock factor 1, short β splicing isoform, fused to EGFP) (mouse)
Sequence (P38532 whole entry, the tested form may be a part, canonical isoform): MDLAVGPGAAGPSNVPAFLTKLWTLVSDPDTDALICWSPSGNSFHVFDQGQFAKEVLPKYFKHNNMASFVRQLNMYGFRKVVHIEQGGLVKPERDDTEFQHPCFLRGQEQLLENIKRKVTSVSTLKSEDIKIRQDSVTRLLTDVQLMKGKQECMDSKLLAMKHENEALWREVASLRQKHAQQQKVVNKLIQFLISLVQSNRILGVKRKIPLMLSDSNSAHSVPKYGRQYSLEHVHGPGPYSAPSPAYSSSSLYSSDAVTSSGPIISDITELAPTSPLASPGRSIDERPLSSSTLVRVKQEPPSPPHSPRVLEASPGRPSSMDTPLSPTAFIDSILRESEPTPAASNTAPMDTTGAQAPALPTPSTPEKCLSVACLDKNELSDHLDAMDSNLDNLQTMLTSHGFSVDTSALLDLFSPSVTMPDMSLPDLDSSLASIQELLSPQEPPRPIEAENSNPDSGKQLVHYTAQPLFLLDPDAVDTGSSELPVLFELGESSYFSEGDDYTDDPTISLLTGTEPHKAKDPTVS

HSE-driven firefly luciferase reporter activity of HSF1β in Hsf1.2−/− iMEFs co-transfected with HSF2β, MG132 at 2.5 µM: 3 fold
Substance: HSF2β (heat shock factor 2, short β splicing isoform) (natural protein)
